The target of the assay is IRSp53 (insulin receptor substrate protein 53), full-length. As to the kind of experiment: SEC-MALS. In general terms: Size exclusion chromatography separates by hydrodynamic size, large species first.

The term stoichiometry N denotes a count of units in the complex or per binding partner. Regarding “IRSp53 (insulin receptor substrate protein 53), full-length (natural protein)”, the stoichiometry N is 2.

(Values after article PMC9280192.)
